From paper PMC4288178, “CRISPR RNA binding and DNA target recognition by purified Cascade complexes from Escherichia coli”

Tests used:
[1] = molecular target: T1, Cascade- (crRNA-free Cse1-Cse2-Cas7-Cas5-Cas6e) (Escherichia coli (K12; expressed in …, UniProt Q46901;P76632;Q46899;Q46898;Q46897 1-502;1-160;1-363;1-224;1-199); experiment: EMSA; EMSA: 20 mM Tris-HCl pH 8, 20 mM NaCl, 10 nM 32P probe, 30 min at 30 or 37 C, 6% native PAGE; loading 10 min at 30 C with crRNA (0.5 uM in Fig 3). Kd values are printed only in Fig 5A (not in the material); conditions: protein: recombinant; tags: N-terminal 6His on Cse1 (CasA); copies: 1;2;6;1;1; label: 5'-32P; 3' handle hairpin
T1 sequence 1: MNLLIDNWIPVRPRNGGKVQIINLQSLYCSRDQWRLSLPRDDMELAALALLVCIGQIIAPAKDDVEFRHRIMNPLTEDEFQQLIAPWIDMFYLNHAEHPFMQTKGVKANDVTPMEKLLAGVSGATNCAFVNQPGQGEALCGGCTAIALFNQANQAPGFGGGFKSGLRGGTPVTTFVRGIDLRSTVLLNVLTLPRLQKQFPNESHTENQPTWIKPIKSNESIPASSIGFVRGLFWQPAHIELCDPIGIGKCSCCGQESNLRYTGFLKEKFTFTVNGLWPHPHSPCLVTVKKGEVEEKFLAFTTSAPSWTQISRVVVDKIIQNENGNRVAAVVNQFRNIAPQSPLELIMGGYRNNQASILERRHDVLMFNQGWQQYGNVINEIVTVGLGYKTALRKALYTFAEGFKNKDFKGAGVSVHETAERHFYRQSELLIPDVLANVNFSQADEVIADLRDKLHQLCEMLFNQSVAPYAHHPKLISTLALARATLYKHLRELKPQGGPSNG
T1 sequence 2: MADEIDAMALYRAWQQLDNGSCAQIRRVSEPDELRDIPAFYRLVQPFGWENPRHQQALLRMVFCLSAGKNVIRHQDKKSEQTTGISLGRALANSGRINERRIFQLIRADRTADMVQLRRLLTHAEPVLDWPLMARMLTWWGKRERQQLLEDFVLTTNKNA
T1 sequence 3: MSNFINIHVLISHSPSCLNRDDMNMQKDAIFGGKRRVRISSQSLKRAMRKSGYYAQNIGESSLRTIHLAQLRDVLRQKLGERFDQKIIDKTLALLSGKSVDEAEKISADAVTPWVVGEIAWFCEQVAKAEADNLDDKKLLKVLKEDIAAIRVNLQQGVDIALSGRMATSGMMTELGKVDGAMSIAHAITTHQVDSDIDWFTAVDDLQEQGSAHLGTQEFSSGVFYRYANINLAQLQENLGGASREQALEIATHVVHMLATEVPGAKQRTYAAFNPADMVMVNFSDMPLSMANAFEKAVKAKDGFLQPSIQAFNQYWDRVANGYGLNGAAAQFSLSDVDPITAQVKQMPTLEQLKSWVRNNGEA
T1 sequence 4: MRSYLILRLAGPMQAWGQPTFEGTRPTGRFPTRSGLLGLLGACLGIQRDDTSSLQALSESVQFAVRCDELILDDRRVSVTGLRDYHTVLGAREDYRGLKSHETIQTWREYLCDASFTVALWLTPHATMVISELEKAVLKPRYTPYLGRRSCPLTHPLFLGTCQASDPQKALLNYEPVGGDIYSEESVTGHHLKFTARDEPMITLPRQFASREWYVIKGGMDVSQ
T1 sequence 5: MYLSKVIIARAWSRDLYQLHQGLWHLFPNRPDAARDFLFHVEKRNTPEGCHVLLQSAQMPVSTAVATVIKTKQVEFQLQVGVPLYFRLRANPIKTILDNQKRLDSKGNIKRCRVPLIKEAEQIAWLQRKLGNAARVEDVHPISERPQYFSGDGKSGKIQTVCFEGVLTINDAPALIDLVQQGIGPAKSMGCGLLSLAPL

[2] = molecular target: T2, Cascade+ (Cascade co-expressed with g8 crRNA) (Escherichia coli (K12; expressed in …, UniProt Q46901;P76632;Q46899;Q46898;Q46897 1-502;1-160;1-363;1-224;1-199); experiment: EMSA; co-expressed g8 crRNA; EMSA: 20 mM Tris-HCl pH 8, 20 mM NaCl, 10 nM 32P probe, 30 min at 30 or 37 C, 6% native PAGE; loading 10 min at 30 C with crRNA (0.5 uM in Fig 3). Kd values are printed only in Fig 5A (not in the material); conditions: protein: recombinant; tags: N-terminal 6His on Cse1 (CasA); copies: 1;2;6;1;1; label: 5'-32P; 3' handle hairpin
T2 sequence 1: T1 sequence 1
T2 sequence 2: T1 sequence 2
T2 sequence 3: T1 sequence 3
T2 sequence 4: T1 sequence 4
T2 sequence 5: T1 sequence 5

[3] = molecular target: T1, Cascade- (crRNA-free …); experiment: EMSA; loaded with crRNA MS2; EMSA: 20 mM Tris-HCl pH 8, 20 mM NaCl, 10 nM 32P probe, 30 min at 30 or 37 C, 6% native PAGE; loading 10 min at 30 C with crRNA (0.5 uM in Fig 3). Kd values are printed only in Fig 5A (not in the material); conditions: protein: recombinant; tags: N-terminal 6His on Cse1 (CasA); copies: 1;2;6;1;1; label: DNA 5'-32P; guide + blunt duplex

B1: crRNA1 (-8/+21) (structured_RNA)
RNA: AUAAACCGCUGUCUUUCGCUGCUGAGGGUGACGAUCCGCCGAGUUCCCCGCGCCAGCGGGG
modifications: 2',3'-cyclic phosphate at 3' end
- binding result [1]: binds
- binding result [2]: binds

B2: crRNA MS2 + MS2 dsDNA (mixed)
RNA: AUAAACCGGCACCGACCCCUUUCUGGAGGUACAUAUUCAUGAGUUCCCCGCGCCAGCGGGG
DNA 1: TGAGCCGGCGTCTGATAAAGGCACCGACCCCTTTCTGGAGGTACATATTCATATCAGGCTCCTTACAGGCAG
DNA 2: CTGCCTGTAAGGAGCCTGATATGAATATGTACCTCCAGAAAGGGGTCGGTGCCTTTATCAGACGCCGGCTCA
- binding result [3]: binds
